Data on two molecules can be found in publication PMC13457854 (Cell Discovery, 2026).

For assay [1], the target named is T1, BTN3A1/BTN3A2 heterodimer (human, UniProt O00481 30-513; P78410 30-334).
T1 construct: BTN3A1, human; synthetic signal peptide fused to the N-terminus; BTN3A2, human; copies: 1 + 1
Kind of assay: AUC; sedimentation velocity, 40,000 rpm, 20 °C, 25 mM HEPES pH 7.4, 150 mM NaCl, 0.02% GDN, absorbance at 280 nm; no HMBPP (3A2 complex also with 40 μM HMBPP: less of the high-mass species). To be noted: both partners purified.

The target of the next assay is T2, BTN3A1 (human, UniProt O00481 30-513).
T2 construct: BTN3A1, human, codon-optimised synthetic cDNA; Construct details are in the Supplementary Information; source: ExpiHEK293F, transfected; purified within the 3A2/3A3 complex (anti-Flag, Strep-Tactin XT, SEC)
The assay is described as above. To be noted: both partners purified.

T2 sequence (O00481 30-513): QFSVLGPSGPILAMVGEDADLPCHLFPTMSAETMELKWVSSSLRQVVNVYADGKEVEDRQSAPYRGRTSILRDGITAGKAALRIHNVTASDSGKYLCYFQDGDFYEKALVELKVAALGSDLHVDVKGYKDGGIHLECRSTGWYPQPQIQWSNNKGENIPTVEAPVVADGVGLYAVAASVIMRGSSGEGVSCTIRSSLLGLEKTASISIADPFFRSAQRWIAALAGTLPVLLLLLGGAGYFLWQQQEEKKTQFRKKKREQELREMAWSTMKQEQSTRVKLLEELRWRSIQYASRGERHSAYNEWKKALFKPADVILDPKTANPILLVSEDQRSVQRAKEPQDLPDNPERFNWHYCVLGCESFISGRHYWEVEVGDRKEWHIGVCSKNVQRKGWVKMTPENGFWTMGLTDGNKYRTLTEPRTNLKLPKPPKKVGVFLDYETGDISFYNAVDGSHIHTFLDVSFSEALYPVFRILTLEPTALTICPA

B1: BTN2A1 (natural protein, human, UniProt Q7KYR7 29-527, looked up)
chain: QFIVVGPTDPILATVGENTTLRCHLSPEKNAEDMEVRWFRSQFSPAVFVYKGGRERTEEQMEEYRGRTTFVSKDISRGSVALVIHNITAQENGTYRCYFQEGRSYDEAILHLVVAGLGSKPLISMRGHEDGGIRLECISRGWYPKPLTVWRDPYGGVAPALKEVSMPDADGLFMVTTAVIIRDKSVRNMSCSINNTLLGQKKESVIFIPESFMPSVSPCAVALPIIVVILMIPIAVCIYWINKLQKEKKILSGEKEFERETREIALKELEKERVQKEEELQVKEKLQEELRWRRTFLHAVDVVLDPDTAHPDLFLSEDRRSVRRCPFRHLGESVPDNPERFDSQPCVLGRESFASGKHYWEVEVENVIEWTVGVCRDSVERKGEVLLIPQNGFWTLEMHKGQYRAVSSPDRILPLKESLCRVGVFLDYEAGDVSFYNMRDRSHIYTCPRSAFSVPVRPFFRLGCEDSPIFICPALTGANGVTVPEEGLTLHRVGTHQSL
notes: BTN2A1, human, codon-optimised synthetic cDNA; construct details are in the Supplementary Information; also called BTN2A1 homodimer; BTN2A1 dimer; source: ExpiHEK293F, transfected; purified within the 3A2/3A3 complex (anti-Flag, Strep-Tactin XT, SEC)
With B1, the binding result in assay [1] was “binds”.

B2: BTN3A2 (natural protein)
chain: not shown
notes: BTN3A2, human, codon-optimised synthetic cDNA; Construct details are in the Supplementary Information; source: ExpiHEK293F, transfected; purified within the 3A2 complex (anti-Flag, Strep-Tactin XT, SEC)
On to B2, for which, in the assay with BTN3A1, the binding result is given as “binds”.
